# Where a chain is given by its changes, count along the chain named.
# T1: recombinant hIL1RAP Domain1+2+3 (aa21-367) (human, UniProt Q9NPH3 21-367)
# T1 construct: Numbering on Uniprot Q9NPH3
# T1 sequence (looked up): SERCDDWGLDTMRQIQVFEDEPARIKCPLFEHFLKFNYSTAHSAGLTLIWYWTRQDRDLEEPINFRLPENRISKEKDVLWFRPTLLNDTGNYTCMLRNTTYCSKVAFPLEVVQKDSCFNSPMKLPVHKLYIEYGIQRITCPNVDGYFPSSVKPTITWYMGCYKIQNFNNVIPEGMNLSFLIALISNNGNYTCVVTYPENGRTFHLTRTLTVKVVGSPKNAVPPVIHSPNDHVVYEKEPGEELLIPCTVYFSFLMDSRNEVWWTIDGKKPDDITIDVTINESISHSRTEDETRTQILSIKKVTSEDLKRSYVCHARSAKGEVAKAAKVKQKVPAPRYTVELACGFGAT
# T2: human IL1RAP on the cell surface (human, UniProt Q9NPH3 21-570)
# T2 sequence (looked up): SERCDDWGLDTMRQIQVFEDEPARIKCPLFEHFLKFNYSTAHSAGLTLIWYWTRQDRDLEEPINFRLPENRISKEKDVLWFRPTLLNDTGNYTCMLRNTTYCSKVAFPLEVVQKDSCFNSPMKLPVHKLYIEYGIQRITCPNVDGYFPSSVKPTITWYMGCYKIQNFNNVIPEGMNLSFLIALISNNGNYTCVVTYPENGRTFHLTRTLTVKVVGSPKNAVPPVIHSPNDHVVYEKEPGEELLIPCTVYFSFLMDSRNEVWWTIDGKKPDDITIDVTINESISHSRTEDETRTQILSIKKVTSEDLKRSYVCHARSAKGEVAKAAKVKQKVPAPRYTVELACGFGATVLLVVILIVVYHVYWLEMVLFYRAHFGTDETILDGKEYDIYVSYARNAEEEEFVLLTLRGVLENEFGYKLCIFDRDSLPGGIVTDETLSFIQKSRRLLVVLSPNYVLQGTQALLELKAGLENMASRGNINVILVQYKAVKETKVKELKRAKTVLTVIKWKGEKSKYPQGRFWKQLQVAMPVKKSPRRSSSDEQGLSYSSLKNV
# T3: recombinant mf IL1RAP aa21-367 (cynomolgus monkey (Macaca fascicularis), UniProt A0A2K5X5J5 21-367)
# T3 construct: also called cynomolgus monkey IL1RAP; cyno IL1RAP
# T3 sequence: T1 sequence (looked up) with L183F, T273P, K326T
# B1: h48D2 VH5:VL4 (antibody, human IgG1, kappa, L234A L235A, V domains shown)
# VH: QEQLEESGGGLVKPGGTLSLTCTVSGPSLSHFDITWIRQAPGSGLEWIGTISPGVSTYYASWAKSRVTISVDTSLNTVSLKLSSVTAADTATYFCARGGVGSSWKAFDLWGPGTLVTISS
# VL: ELVMTQSPSSVSASVGDRVTITCQASESISTALAWYQQKPGKAPKLLIYKASTLPSGVPSRFSGSGSGTDFTLTINSLQPEDFATYYCQQGFSSGNVHNAFGGGTKVEIKR
# notes: Humanized; also called VL4:VH5; humanized 48D2 variant VH5:VL4
# B2: h48D2 VH5.AP:VL4 (antibody, human IgG1, kappa, L234A L235A, V domains shown)
# VH: B1 VH with A40P
# VL: B1 VL
# notes: Humanized and de-immunized; also called VL4:VH5.AP
# B3: h48D2 VH5.SK:VL4 (antibody, human IgG1, kappa, L234A L235A, V domains shown)
# VH: B1 VH with S43K
# VL: B1 VL
# notes: Humanized and de-immunized; also called VL4:VH5.SK
# B4: h48D2 VH5:VL5.GL (antibody, human IgG1, kappa, L234A L235A)
# heavy: not shown
# light: DIQMTQSPSTLSASVGDRVTITCQASESISTALAWYQQKPGQPPKLLIYKASTLPSGVPSRFSGSGSGTEFTLTISDLESDDAATYYCQQGFSSGNVHNAFGGGTEVVVKRTVAAPSVFIFPPSDEQLKSGTASVVCLLNNFYPREAKVQWKVDNALQSGNSQESVTEQDSKDSTYSLSSTLTLSKADYEKHKVYACEVTHQGLSSPVTKSFNRGEC
# notes: Humanized and de-immunized; also called VL5.GL:VH5
# B5: h48D2 VH5.AP:VL5 (antibody, human IgG1, kappa, L234A L235A)
# heavy: not shown
# light: B4 light with D1A, I2P, Q3V, M4L, S9A, S12E
# notes: Humanized and de-immunized; also called VL5:VH5.AP
# B6: h48D2 VH5.AP:VL5.GL (antibody, human IgG1, kappa, L234A L235A)
# heavy: not shown
# light: B4 light
# notes: Humanized and de-immunized; also called VL5.GL:VH5.AP
# B7: h48D2 VH5.SK:VL5 (antibody, human IgG1, kappa, L234A L235A)
# heavy: not shown
# light: B4 light with D1A, I2P, Q3V, M4L, S9A, S12E
# notes: Humanized and de-immunized; also called VL5:VH5.SK
# B8: h48D2 VH5.SK:VL5.GL (antibody, human IgG1, kappa, L234A L235A)
# heavy: not shown
# light: B4 light
# notes: Humanized and de-immunized; also called VL5.GL:VH5.SK
# B9: h48D2 VH5.GL:VL5 (antibody, human IgG1, kappa, L234A L235A)
# heavy: not shown
# light: B4 light with D1A, I2P, Q3V, M4L, S9A, S12E
# notes: Humanized and de-immunized; also called VL5:VH5.GL
# B10: h48D2 VH4:VL5 (antibody, human IgG1, kappa, L234A L235A, V domains shown)
# VH: QVQLQESGPGLVKPSETLSLTCTVSGPSLSHFDITWIRQPPGKGLEWIGTISPGVSTYYASWAKSRFTISVDTSKNQFSLKLTSVTAADTATYYCARGGVGSSWKAFDLWGPGTLVTVSS
# VL: APVLTQSPATLEASVGDRVTITCQASESISTALAWYQQKPGQPPKLLIYKASTLPSGVPSRFSGSGSGTEFTLTISDLESDDAATYYCQQGFSSGNVHNAFGGGTEVVVKR
# notes: Humanized; also called VL5:VH4
# Target: T1, recombinant hIL1RAP Domain1+2+3 …
# Test: BLI (BLItz), antibody on Protein A biosensor, hIL1RAP (21-367) in solution
# Protocol: (§1) Affinity measurements were done on BLItz™ Label-Free Protein Analysis System from ForteBio, using the Basic Kinetics module in the BLItz Pro 1.3.1.3 software from Molecular Devices. Protein A biosensors were hydrated in blocking buffer (PBS, 0.5% BSA, 0.05% Tween 20, pH 7.4) for minimum 10 min at room temperature before coating. Protein A biosensors were coated with antibodies by dipping the biosensors in 200 μl of antibody solution (10 μg/ml in blocking buffer) for 30 min at room temperature. The sensors were then incubated in 200 μl blocking buffer for at least 10 min before use. […] The baseline was made in blocking buffer with a duration time of 30 sec. Association was made for 120 sec in hIL1RAP followed by 120 sec dissociation in blocking buffer.
# Affinity measurement results are shown in Table 4 for chimeric 48D2, as well as for humanized 48D2 variant VH5:VL4 (see Example 11) and for humanized and de-immunized 48D2 variant VH5.GL:VL4 (see Example 13). kₐ is the association rate constant, for characterization of the antibody binding to the target, kd is the dissociation rate constant, for characterization of the antibody dissociation from the target, and KD is the equilibrium dissociation constant between the antibody and its antigen, the ratio of kd/kₐ. […] The lower the KD value (lower concentration), the higher the affinity.
Binder,Kd,koff,kon
B1,2.74 nM,0.000172 s⁻¹,60200 M⁻¹ s⁻¹

# Target: T1, recombinant hIL1RAP Domain1+2+3 …
# Test: bio-layer interferometry, human IL1RAP
# Protocol: as §1
# KD values for affinity towards human IL1RAP are shown in Table 17 for the de-immunized h48D2 variants. Affinity was measured using bio-layer interferometry. […] See also Table 4 for a direct comparison of 48D2, humanized 48D2, and de-immunized h48D2.
row,Binder,Kd
1,B2,1.7 nM
2,B3,2 nM
3,B4,0.752 nM
4,B5,1.96 nM
5,B6,1.5 nM
6,B7,2.8 nM
7,B8,2.28 nM
8,B9,1.87 nM

# Target: T2, human IL1RAP on the cell surface
# Test: cell-based or functional assay
Binder,IC50 of IL-1α signaling (HEK-Blue assay),IC50 of IL-1β signaling (HEK-Blue assay),IC50 of IL-33 signaling (HEK-Blue assay),IC50 of IL-36α signaling (HEK-Blue assay),IC50 of IL-36β signaling (HEK-Blue assay),IC50 of IL-36γ signaling (HEK-Blue assay)
B2,0.209 nM,0.122 nM,1.48 nM,0.132 nM,0.146 nM,0.182 nM
B3,0.213 nM,0.099 nM,5.44 nM,0.143 nM,0.108 nM,0.17 nM
B4,0.236 nM,0.105 nM,7.83 nM,0.158 nM,0.165 nM,0.217 nM
B5,0.178 nM,0.098 nM,1.68 nM,0.149 nM,0.134 nM,0.191 nM
B6,0.204 nM,0.107 nM,2.97 nM,0.178 nM,0.162 nM,0.19 nM
B7,0.172 nM,0.061 nM,2.87 nM,0.136 nM,0.125 nM,0.157 nM
B8,0.321 nM,0.117 nM,3.11 nM,0.204 nM,0.16 nM,0.245 nM
B9,0.214 nM,0.0999 nM,2.46 nM,0.128 nM,0.135 nM,0.129 nM

# Target: T2, human IL1RAP on the cell surface
# Test: cell-based or functional assay
# Remark: another data set of the same source
Binder,IC50 of IL-1α signaling (HEK-Blue assay),IC50 of IL-33 signaling (HEK-Blue assay),IC50 of IL-36α signaling (HEK-Blue assay),IC50 of IL-36β signaling (HEK-Blue assay),IC50 of IL-36γ signaling (HEK-Blue assay),IC50 of IL-1β signaling (HEK-Blue assay)
B1,6.47 nM,2 nM,~2.5 pM,~0.342 nM,2.83 nM,–
B10,–,74.3 nM,–,–,–,0.273 nM

# Target: T1, recombinant hIL1RAP Domain1+2+3 …
# Test: bio-layer interferometry, human IL1RAP
# Remark: another data set of the same source
# Protocol: as §1
# The antibodies were characterized for A) binding (ELISA analysis, human and cynomolgus monkey IL1RAP), B) inhibition of cytokine signaling (HEK-Blue™ assay), C) affinity (Bio-layer interferometry), D) size heterogeneity (SE-HPLC) and E) yield (concentration, A280). […] SE-HPLC was performed using standard procedures and PBS as running buffer. Affinity and cytokine inhibition were measured as previously described in Example 10. All 25 humanized clones were analyzed for blocking activity on IL-1α, IL-1β and IL-33 signaling while only the clones that had retained the inhibitory activity similar to chimeric 48D2 were analyzed for IL-36 inhibition.
# KD values for affinity towards human IL1RAP are shown in Table 11 for the humanized 48D2 variants. Affinity was measured using bio-layer interferometry. […] See also Table 4 for a direct comparison of chimeric 48D2, humanized 48D2 variant VH5:VL4, and a humanized and de-immunized 48D2 variant VH5.GL:VL4.
row,Binder,Kd
1,B1,1.67 nM
2,B10,15 nM

# Target: T3, recombinant mf IL1RAP aa21-367
# Test: binding ELISA, coated recombinant mf IL1RAP aa21-367
row,Binder,IC50
1,B1,0.028 µg/mL
2,B10,0.0244 µg/mL

# Target: T1, recombinant hIL1RAP Domain1+2+3 …
# Test: binding ELISA, coated recombinant hIL1RAP aa21-367
row,Binder,IC50
1,B1,0.0258 µg/mL
2,B10,0.0258 µg/mL

# From US20220242950A1 (CANTARGIA, published 2022)
